Assay results: patent US10801046B2, “Methods and materials for biosynthesizing multifunctional, multivariate molecules via carbon chain modification” (INVISTA NORTH AMERICA S.A.R.L., priority 2016, dated 2020)

Legend:
[1] = In vivo carboxylate reductase screening, substrate consumption by LC-MS, monomethyl heptanedioate; assay type: cell-based, Escherichia coli; conditions: 541 enzymes screened in vivo
Procedure: To screen carboxylate reductases in vivo, […] T7- pUC expression vectors was co-transformed into T7 Express lysY/Iq with the phosphopantetheinyl transferase sfp from Bacillus subtilis on a T7-pCDF expression vector. Biological duplicates of the resulting strains were incubated in 0.5 mL of terrific broth containing either 1 g/L heptanedioate or 1 g/L monomethyl heptanedioate and supplemented with 0.4 mM IPTG in 96-well deep well plates. The plates were incubated for 30 h at 30° C. in a shaking incubator. The cells were then pelleted, and culture supernatants from the same strains in media containing either heptanedioate or monomethyl heptanedioate were combined. The combined supernatants were analyzed by LC-MS to determine the concentration of heptanedioate and monomethyl heptanedioate. Carboxylate reductase activity on heptanedioate or monomethyl heptanedioate was reflected by consumption of the respective substrate in the medium.

[2] = test system: heptanedioyl-ACP; assay: Cell lysate in vitro thioesterase screen (DTNB, absorbance at 410 nm) on heptanedioyl-ACP; assay type: biochemical; conditions: 0.33 mM acyl-ACP substrate, 30° C., 30 min

Molecule | monomethyl heptanedioate activity [1] | activity toward heptanedioyl-ACP (hydrolysis) [2]
SEQ ID NO: 211: Theileria parva carboxylate reductase (protein, listed as Theileria parva) MNHLYSVALEGTEEEGYTPVYRNPDYKDRLLSCEDYFDGKIQTGWDIFNRGLTLSRNKPFLGSRVKNADGTFGEFKFMTYGEVEDQIKHFGSGLLNLDKFKEVFVKEENQMVKMLGIYSQNTVEWLITEQVCNGYNLTLVPLYDTLGEESLLYIINVTKLNVIVCDYKCSLKLLDLLPKSNGSVSLVVVTGVDELPDQVTAKSQSLSSVTFKTYQEVVNFGKEDPLAFTPCTKDSIGTISYTSGVSGIPKGVIVKHFQHASLVVIVNRIVCDLEKTQLENPKVHLSYLPLSHMFERLYIGTSIIEGSVIGLFSGDVKNILEDIKALRPNVFPSVPRLYMRIHDKIFSTVSQKSFLIRSLFGLGLSRKLKKIRKTGVVTHRFWDKILFNKFNTLLGGRVNWMLTGSAPLSPKIFDNIRALFSIPLVSGYGLTETCAGAFHTERYEPDSTHVGGPVPCMEFRLKSLPDYNYYTTDKNPKGELLLRGNNIVTSYFSDDVTNKESFDENKWFLTGDIAELLPNGAIRIIDRRKNIFKLSQGEYISPEKIESILNTAPILCQSYVTGKSHFLNPVAVVVPDELELELWSKRYGLANLDRKEQCEVKQLKEFIAKEIEKVFENSDVKGFEKIKNFYVEHELFSIENNLLTTTSKLKRYNLSKKYAEQIDRLNDES | most monomethyl heptanedioate activity | 
SEQ ID NO: 184: [Clostridium] ultunense Esp thioesterase (protein, Clostridium ultunense Esp, [Clostridium] ultunense Esp thioesterase) MKATPLYIKDYKVEINHVDFKGDLKLSSLFTYCQDIAGLHAENLGMGREVLYTQHRVIWVLVRVRVDIIKYPKWKDILTLETWPQEPSRMGFDRDFLIKDKKGNILAKAVSTWVVIDVESRKLVRTKSVYTGYPLVVEKRAIDCKLGNLKSSGELETAYERTVRYSDIDVNEHLNNAKYLDFIMDSFSFEEHRRFNVKSVEISYSNEALLGETIKIYEDRSRIDSNIIYMEGIREGKDLVFKSQIEIEEK |  | notable for their activity toward heptanedioyl-ACP
SEQ ID NO: 213: Helobdella robusta carboxylate reductase (protein, listed as Helobdella robusta) MRVSNNGPFLGHRCRFTKQYVWQTYEEIFELCQDFGSALIYKGLKPEDSTVIGIYSHNCVEWNITSETCSMFSMALVPLYDTLGPEACQYIINQTEMTTVVCEGWLKANLILNGLKQAESRTATPLKRLIIITNKDFHMSLKDSVRVSKHFSSSPDLANFADADSLSKNVLETAEKFGVEIPPTPSTINLISYTSGTTGDPKGVVLTHEAVICNISGLLAYDQHHKLFPKCGDFHLSYLPAAHGFERMNQIILMINGGQIGFSSGDILLLLDDIAALRPTIFMCVPRVLNRVYEKVMSNLENKPIKRWLFNFGMQRKLNLLKRGIITKNTIWDKLMFHKIQTLFGGRLEVCISGSAPLSDVVMDFCRGTFGCFVYEGYGQTELCAATMLTLPYEHDTVVVGPPLPNCHIKLIDIPDLDYKAINNMGEICIKSFCRMREYFKEPIKTRETLDEDSYIHTGDVGMWLPNGNLRIIDRRKHVFKLAQGEYVAPEKIENIYAMSPLICQVFVDGNSLQFCPLAVVVPDEDALKRLAERDSRTSKTICPIKICNMEQFCKNEEIRKMIHADMLQRGKKAGLKGFEQVKDIHLHPEKFSIENGLLTPTMKTKRPILRKKFQNIFVEMYEKLNRNVVSTNITTHPLQNL | most monomethyl heptanedioate activity | 
SEQ ID NO: 182: Firmicutes bacterium CAG:449 thioesterase (protein, Firmicutes bacterium CAG:449, Firmicutes bacterium CAG:449 thioesterase) MNYYQKELVLQEKDFINDELSPYSILNYFQDIAGIHADKIGLSHEELIKNDLVWVVLRNKYEIIKMPSINQKVILKTWPHQKGKIDFDREYAIYDENNNLLIKGLSKWILMNYKTRRISMFNNIKYSFECLEETNFENKFNKIEDFDINNFSFIETTTSENDLDINGHVNNASYARIVLNNIDFDITINHFEINYIKEIKANQKLKIYYLKKDNTYYIKAFNNEEVIFVLIVY |  | notable for their activity toward heptanedioyl-ACP
SEQ ID NO: 214: Mycobacterium lepromatosis carboxylate reductase (protein, listed as Mycobacterium lepromatosis) MSTTNTQEEQLARRVDYLTANDPQFAAAKPDPAVVAALAQPGLRLPQIIQTTLDGYAERPALGQRVVEFIKDPKTGRTSIELLPCFETITYRELSDRVGALARAWIHDLLHAGDRVCVLGFNSVDYAIIDMALGVISAVAVPLQTSAAITQLQPIVIETEPRVIAASVNQLPDTVELILSGPAPAKLVVFDYHPEADEQRDAVATARERLVDNNVVVESLIEVLDRGKTLPATPIPVADDSDDPLALLIYTSGSTGAPKGAMYPQSNVGKMWRRSDGNWFRSTAASITLNFMPMSHVMGHGILYGTLGNGGTAYFAARSDLSTLLEDLKLVRPTELNFVPRIWETLYDECQHAVDRRLTNSGSADRAAIEAEVMDEQRQSLLGGRYIAAMTGSAPTSPELKHGVESLLEMHLLEGYGSTEAGMVLFDGEVQRPPVIDYKLVDVPDLGYFSTDQPYPRGELLLKTQNMFPGYYKRPEVTATVFDGDGYYQTGDIVAEVGPARLVYVDRRNNVLKLAQGQFVTVAQLEAAFSNSPLVRQIYIYGNSAHPYLLAVVVPTEDALATNDIEALKPLIIDSLQEVAKEAELQSYEVPRDLIIETTPFSLENGLLTGIRKLAWPKLKQHYGARLEQLYADLAEGQTNALHALRQSGAEAPVLQTVSRAAGTILGAATTDLPSNAHFTDLGGDSLSALTFSNLLRELFNIDVPVGVIVSPVNDLAAIADYIESEQQGTKRPTFTAIHGRDAGEVHASDLTLDKFIDVSTLTAAPMLAQPDAEVRTVLLTGATGFLGRYLALKWLERMDLVDGKVIALVRAKSNEEARARLGKTFDSGDPKLLAHYQELAADHLEVIAGDKGEVELELDRQTWRRLADTVDLIVDPAALVNHVLPYSELFGPNALGTAELIRIALTSKQKPYIYVSTIGVGDQIEPAKFTEDSDIRVTSPTRKINDNYANGYGNSKWAGEVLLREAHELCGLPVAVFRCDMILADTSYAGQLNVPDMFTRMMLSLAATGIAPGSFYELDAESNRQRAHYDGLPVEFIAEAISTLGAQSLHGRDGFATYHVMNPHDDGIGMDEFVDWLIDAGCPIQRINDYDEWLRRFEISLRALPERQRHNSLLPLLHNYQKPEKPLNGSLAPTDRFRTAVQESKIVQDKDIPHISSAIIGKYVSDLQLLGLLRRQADRSPARVPS | most monomethyl heptanedioate activity | 
SEQ ID NO: 215: Schizopora paradoxa carboxylate reductase (protein, listed as Schizopora paradoxa) MASTLLQDVSPAPPLMISPLEIPLPEPVDFSKQAVEVPGTRRPGQTGHYQNAVWGFKAFPEEGPVYTLPDVFELGLSLEKNGQTSNKPFLGHRPVISAEPLKFASDYVWSTYAEADERRQNVGSALEKYFRDGTLGGGEYQTVGIWSQNRAEWQIVELACHAYGKVSVSLYDTLGKDSVEYIIEHAHLTVIFVTSQHIPLLLAMASKVPMLKLIVSVDELSSEAKRIMGIWSRTANVQVMELSELEQFGKANRLNMARPIGKSLATICYTSGTTSGPKGVLLTHSNLVSSVKSNLRASHFGEKGGIMMSYLPLAHIYERITELCTMALGGQIGFFTGDPLRLLEDASILKPNFFPSVPRVLNRVYQSAMLAGQTPGLKGYLFRTAMDAKLKKLHETGDNTHMLWDRLVFRKIQALLGGNVELVSCGSAPISVDVMDFLKIAFSCDVIEGYGMTENCGTCTRCWPNDPSSSGTVGAPQPCNEIKLVDVPSMNYTSNDKPNPRGEVCLRGNNCFSTYYKDEKNTRETVDEEGWLHTGDVGEIDSAGRLKIIDRIKNIMKLAQGEYVALEKIENVYGLHPLVAQLYVHGESLQDHLVGVIVPDPTQFAILCNSIRGTKIGANDSAELATAARDPAVAQAVLREITHEAKKAALKGFEMIKKIHLTTVPFSTENGLLTPTFKVRRKDCSIYFKEELAALYAQPTSMLK | most monomethyl heptanedioate activity | 
SEQ ID NO: 183: Clostridium sp. CAG: 798 thioesterase (protein, Clostridium sp. CAG:798, Clostridium sp; CAG: 798 thioesterase) MAIIENKYHIGIKYVDKDRLLSLRGIILLFEDIACRHSDMVGYGINDVTKTHFSWVLLNWKIKVLSRINYGSIVTVKTWSRETSKLYTYRDFEIYDENNNLICIASSKWVLLSTETGHIIHITEEIKNAYLAENKTVFNESDLHKIVEPDNAEKTFSFTVRRRDIDINNHMNNLYYLDYALEALPEEVYSKFFNNVEIMYKYSAKLGETINCFYKEEEDGYYVMMKSATDNILHALVKLY |  | notable for their activity toward heptanedioyl-ACP
SEQ ID NO: 212: Anisakis simplex carboxylate reductase (protein, Anisakis simplex, Anisakis simplex carboxylate reductase) MYERLLHCIGYQVGLRFGFFGGDVNRLIDDIKELHPTVIPLVPRVLNRFHDTVMAKVNKSFLKRIIFNLALAFKYRELSRSIIRNDSLVDRYVFKRVREELGGRARFSMIGSAPVHGDILRFSRAVLGYVIVEGYGATECAAGTSAVIEADPITEHIGIPLACAAIKLVDVPELGYYAKDQAGEICYRGAHVFKGYFKNDEGTKEVLDADGWLHSGDIGRWTERGTLKIVDRKKHIFKLQQGEYIAPEKIEAVYDRSEYVVQSFVYGESLKTCLVAIIVPDQEIVLRDAKQKLDLAETDFAKLCRNDAVKKMILNDLTIVGRKAGLNSFEQVKDIYLSVERFTIANDLLTPTMKNKRPQIKSHFMKELNEMYSKLK | most monomethyl heptanedioate activity | 
SEQ ID NO: 95: Aerococcus viridans ATCC 11563 thioesterase (protein, Aerococcus viridans ATCC 11563 = CCUG 4311, Aerococcus viridans ATCC 11563 thioesterase) MINIRHYQGGKRMGLLYQESVKVRHYHCNALGEMTLPAILDIMLIASNNQEATIPEAKEGFRQEGWAWIITQNQIDINRLPRYDEDIIAETEATTYNKFFSKRHYALKTRDGLVLAQAETTFALIDLNQRSIVRIPEIVAEWYQVEKEERPSRRKRLNKEIAVESKLDRFEVKFLDIDLNNHVNNTIYLRWITNSLGMEWFEKYTPTSFTVAYEKEMYLHQEGAVHSDISTVSEDLKSGDTFNSQHVIDSEDKAHCLTEITWQVK |  | notable for their activity toward heptanedioyl-ACP
